In US5668265, “Bi-directional oligonucleotides that bind thrombin” (Becton Dickinson and Company):

Molecular target: alpha-thrombin (Homo sapiens, UniProt P00734;P00734 P00734:315-363,P00734:364-622)
Assay: SPR; apparent; solution competition vs immobilized consensus aptamer; same buffer, 25 C

Row | Binder | Kd
1 | GGTTGGTT (ssDNA) [Compound 12 (single segment)] | 1.5 µM
2 | GGTTGGTGTGGTTGG (structured_DNA) [Compound 10 (consensus thrombin aptamer)] | 0.006 µM
